Here are results for 24 molecules from patent US20220024975A1 (ARROWHEAD PHARMACEUTICALS, published 2022).

Values joined by “and” are separate entries in the source; they are usually repeats but may differ in a detail not shown here. Equal values may be shown once. Non-standard residues stand in square brackets, D forms with d. No end group written: not given here. *: point of attachment. MeO‑PEG8 = N-terminal cap, methoxy-PEG with 8 ethylene glycol units; guanidinyl = N-terminal guanidinyl cap, N=C(N)*; Pentanoyl(5-guanidino) = NC(N)=NCCCCC(=O)*; Cit = NC(=O)NCCC[C@H](N)C(=O)O; Agp = N=C(N)NC[C@H](N)C(=O)O; Abu = CC[C@H](N)C(=O)O; Aib = CC(C)(N)C(=O)O

Assay [1] concerns the target T1, αvβ6 integrin (human, UniProt P06756 31-1048; P18564 22-788).
T1 construct: whole, on cells; target is the endogenous integrin on αvβ6 positive-control cell lines; also called Integrin alpha-v beta-6
In words: flow cytometry, Cy5-polymer conjugate 5 µg/ml, CAPAN-2 cells. For orientation: Flow cytometry measures light scatter and fluorescence of single cells or particles in a stream.

For assay [2], the target named is T1, αvβ6 integrin. In words: flow cytometry, Cy5-polymer conjugate 5 µg/ml, H2009 cells. The source says:
(§1) B. αvβ6 ligand binding (flow cytometric analyses). To assess for specificity of binding of the αvβ6 ligands to the αvβ6 integrin, each αvβ6 ligand or negative control peptide was conjugated to a Cy5-labeled polymer (as described above) and evaluated for binding to cells. […] H2009 (human lung epithelial adenocarcinoma) and CAPAN-2 (human pancreas adenocarcinoma) cells served as the αvβ6 positive-control cell lines. Cells were detached from culturing flasks with Accutase, washed in PBS, and seeded into 5 ml polystyrene round-bottom tubes at 200,000 cells in 200 μl complete media (culturing media with supplements and fetal calf serum). αvβ6 ligand-polymer conjugates or no-ligand-polymer conjugates were added at 5 μg/ml (polymer-Cy5 concentration) to cells, mixed and incubated at 37° C. for 3 h. Incubation at 37° C. facilitated ligand/receptor interaction which may result in static binding to the extracellular cell surface and/or internalized ligand/receptor complexes. The mixture was re-suspended at 1 h intervals. Following a 3 h incubation, cells were washed 2× with 4 ml chilled buffer (PBS-2% FCS) and re-suspended in 200 μl buffer containing 10 μM SYTOX blue stain for live/dead cell gating. Samples were analyzed on a BD Biosciences Canto II cytometer equipped with a violet (405 nm), blue (488 nm) and red (633 nm) lasers.
Viable cells were initially gated as the SYTOX blue negative population on the C detector with the violet laser. These viable cells were then assessed for conjugate binding/uptake with the red laser as the Mean Fluorescence Intensity (MFI) of the Cy5 fluorophore. Data analyses were performed with FlowJo v10.1 software. A specific MFI Ratio (sMFIr) for each αvβ6 ligand was determined by the formula: […]

Assay [3] addresses T1, αvβ6 integrin. In words: flow cytometry, Cy5-polymer conjugate on H2009 / CAPAN-2 cells.
Excerpt: as §1, with “Incubation at 37° C. facilitated ligand/receptor interaction which may result in static binding to the extracellular cell surface and/or internalized ligand/receptor complexes. The mixture was re-suspended at 1 h intervals. Following a 3 h incubation, cells were washed 2× with 4 ml chilled buffer (PBS-2% FCS) and re-suspended in 200 μl buffer containing 10 μM SYTOX blue stain for live/dead cell gating.” left out
Viable cells were initially gated as the SYTOX blue negative population on the C detector with the violet laser. These viable cells were then assessed for conjugate binding/uptake with the red laser as the Mean Fluorescence Intensity (MFI) of the Cy5 fluorophore. […] A specific MFI Ratio (sMFIr) for each αvβ6 ligand was determined by the formula: […]

T1 sequence (P06756 31-1048, chain 1 of 2): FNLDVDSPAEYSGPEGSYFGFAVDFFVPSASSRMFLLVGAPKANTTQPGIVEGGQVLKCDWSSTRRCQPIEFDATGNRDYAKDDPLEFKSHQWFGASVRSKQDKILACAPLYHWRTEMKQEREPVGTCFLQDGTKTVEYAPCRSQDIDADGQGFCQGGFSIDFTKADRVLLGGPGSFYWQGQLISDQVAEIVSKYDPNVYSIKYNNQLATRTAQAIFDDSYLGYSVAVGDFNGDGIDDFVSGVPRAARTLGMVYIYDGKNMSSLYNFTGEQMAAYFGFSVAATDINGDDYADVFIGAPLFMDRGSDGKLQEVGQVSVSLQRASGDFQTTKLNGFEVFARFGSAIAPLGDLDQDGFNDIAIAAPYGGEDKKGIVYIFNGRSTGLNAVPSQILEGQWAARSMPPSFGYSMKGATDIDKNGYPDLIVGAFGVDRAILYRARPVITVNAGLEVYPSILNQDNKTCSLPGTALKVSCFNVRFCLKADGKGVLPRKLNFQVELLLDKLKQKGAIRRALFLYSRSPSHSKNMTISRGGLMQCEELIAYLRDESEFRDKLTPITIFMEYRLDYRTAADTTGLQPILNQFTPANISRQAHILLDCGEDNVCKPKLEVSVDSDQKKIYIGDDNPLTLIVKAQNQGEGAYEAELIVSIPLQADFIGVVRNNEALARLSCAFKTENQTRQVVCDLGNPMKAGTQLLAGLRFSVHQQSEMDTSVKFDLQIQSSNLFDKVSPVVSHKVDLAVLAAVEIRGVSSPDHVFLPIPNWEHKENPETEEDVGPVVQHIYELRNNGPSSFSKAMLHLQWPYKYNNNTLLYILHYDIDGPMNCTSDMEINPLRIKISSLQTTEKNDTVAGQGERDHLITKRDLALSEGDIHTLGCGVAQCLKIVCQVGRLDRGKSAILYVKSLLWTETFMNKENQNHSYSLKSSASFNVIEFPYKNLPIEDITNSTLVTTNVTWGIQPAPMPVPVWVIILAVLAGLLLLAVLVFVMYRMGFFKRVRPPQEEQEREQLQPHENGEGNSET
T1 sequence (P18564 22-788, chain 2 of 2): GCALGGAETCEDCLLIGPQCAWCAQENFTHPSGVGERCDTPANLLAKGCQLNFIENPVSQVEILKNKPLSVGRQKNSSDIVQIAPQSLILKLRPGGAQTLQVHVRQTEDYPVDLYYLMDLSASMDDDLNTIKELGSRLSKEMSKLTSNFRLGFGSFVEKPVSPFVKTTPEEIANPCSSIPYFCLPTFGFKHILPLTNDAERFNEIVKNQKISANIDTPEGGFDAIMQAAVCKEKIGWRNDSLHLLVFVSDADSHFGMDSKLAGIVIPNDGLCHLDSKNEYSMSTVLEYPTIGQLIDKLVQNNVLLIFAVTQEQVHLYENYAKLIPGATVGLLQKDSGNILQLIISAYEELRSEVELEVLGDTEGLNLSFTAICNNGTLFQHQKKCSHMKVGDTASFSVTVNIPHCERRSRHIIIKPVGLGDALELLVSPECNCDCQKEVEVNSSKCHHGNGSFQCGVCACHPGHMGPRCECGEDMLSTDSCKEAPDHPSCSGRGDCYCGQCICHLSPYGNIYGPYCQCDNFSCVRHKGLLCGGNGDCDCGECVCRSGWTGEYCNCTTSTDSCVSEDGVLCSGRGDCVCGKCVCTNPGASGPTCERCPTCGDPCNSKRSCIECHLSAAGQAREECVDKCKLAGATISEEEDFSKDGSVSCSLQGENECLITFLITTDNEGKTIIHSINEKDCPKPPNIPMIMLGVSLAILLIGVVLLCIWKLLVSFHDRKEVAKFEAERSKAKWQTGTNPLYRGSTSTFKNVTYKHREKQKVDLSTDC

Turning to Ac-RGDLA[Abu]L, the MFI (specific MFI ratio, sample/no-ligand) in assay [1] worked out at 7.9; in assay [2], 2.6.
For Ac-RGDLA[Abu]L[Aib] the same measures were 8.9 and 3.2.
Regarding Ac-RGDLA[Abu]L[Cit][Aib]L, the MFI (specific MFI ratio, sample/no-ligand) in assay [1] was 7.7; in assay [2], 3.2 and 4.55 and 4.6.
As to Ac-RGDαMeLAAbuLCitAib (peptide), the MFI (specific MFI ratio, sample/no-ligand) in assay [1] is 0.9; in assay [2] it was 0.8 and 1.
Regarding Ac-RGαMeDLAAbuLCitAib (peptide), the MFI (specific MFI ratio, sample/no-ligand) is 1 in assay [1]; 0.9 and 1 in assay [2].
In the case of “CH3O(CH2CH2O)1CH2CH2CO-RGDLAAbuLCitAib (peptide)”, the MFI (specific MFI ratio, sample/no-ligand) in assay [2] was 3.8.
The same measure, in the same setting: the figure for “CH3O(CH2CH2O)2CH2CH2CO-RGDLAAbuLCitAib (peptide)” is 3.6; for “CH3O(CH2CH2O)3CH2CH2CO-RGDLAAbuLCitAib (peptide)” it is 3.7.
Still for that read-out and setting: the figure for “CH3O(CH2CH2O)5CH2CH2CO-RGDLAAbuLCitAib (peptide)” is 1.6.
Same read-out and setting: next, RGDLA[Abu]L[Cit][Aib]L: 4.6.

B1: Ac-RGDLAILRQL (peptide)
peptide: Ac-RGDLAILRQL
modifications: not fully specified; printed as Ac-RGDLAILRQL
notes: Tested as ligand-(PEG)8-K-HyNic conjugated to Cy5-labelled 1170-100B polymer
B1: the “MFI (specific MFI ratio, sample/no-ligand)” value in assay [2] was found to be 6.22 ratio.

B2: RGELATLRQL (RGE control) (peptide)
peptide: RGELATLRQL
modifications: not fully specified; printed as RGELATLRQL (RGE control)
notes: Negative control; Tested as ligand-(PEG)8-K-HyNic conjugated to Cy5-labelled 1170-100B polymer
In the case of B2, the binding result in assay [3] is given as “no binding (tested: 5 µg/ml (polymer-Cy5 concentration))”. Moreover, in assay [2], the “MFI (specific MFI ratio, sample/no-ligand)” value was determined as 0.99 ratio.

B3: Ac-RGDLAVLRQL (peptide)
peptide: Ac-RGDLAVLRQL
modifications: not fully specified; printed as Ac-RGDLAVLRQL
notes: as for B1
On to B3, for which, in assay [2], the “MFI (specific MFI ratio, sample/no-ligand)” value is 6.23 ratio.

B4: Ac-RGDLALLRQL (peptide)
peptide: Ac-RGDLALLRQL
modifications: not fully specified; printed as Ac-RGDLALLRQL
notes: as for B1
Regarding B4, in assay [2], the “MFI (specific MFI ratio, sample/no-ligand)” value came out at 6.06 ratio.

B5: RGDLATL (peptide)
peptide: RGDLATL
modifications: not fully specified
notes: Tested as ligand-(PEG)8-K-HyNic conjugated to Cy5-labelled 1170-100B polymer; also called natural peptide
Turning to B5, the “MFI (specific MFI ratio, sample/no-ligand)” value in assay [2] was 2.9 ratio.

B6: MeO-PEG8-RGDLATLRQL (peptide)
peptide: {MeO‑PEG8}-RGDLATLRQL
modifications: not fully specified; printed as MeO-PEG8-RGDLATLRQL
notes: as for B1
In the case of B6, the “MFI (specific MFI ratio, sample/no-ligand)” value in assay [2] stood at 2.5 ratio.

B7: des-amino-… (peptide)
peptide: [Pentanoyl(5-guanidino)]GDLATLRQL
modifications: not fully specified (C-terminus); printed as des-amino-RGDLATLRQL; also: HyNic conjugated to Cy5-labelled 1170-100B polymer
With B7, the MFI (specific MFI ratio, sample/no-ligand) in assay [2] amounted to 1.1.

B8: Guanidinyl-RGDLATLRQL (peptide)
peptide: guanidinyl-RGDLATLRQL
modifications: not fully specified; printed as Guanidinyl-RGDLATLRQL
notes: as for B1
For B8, in assay [2], the “MFI (specific MFI ratio, sample/no-ligand)” value stood at 4.3 ratio.

B9: Ac-RGDLATLRQL (peptide)
peptide: Ac-RGDLATLRQL
modifications: not fully specified; printed as Ac-RGDLATLRQL
notes: as for B1
Regarding B9, the “MFI (specific MFI ratio, sample/no-ligand)” value in assay [2] came to 4.7 ratio.

B10: RGDLAT (peptide)
peptide: RGDLAT
modifications: not fully specified
notes: as for B1
B10: the “MFI (specific MFI ratio, sample/no-ligand)” value in assay [2] is 1.3 ratio.

B11: Me-RGDLATLRQL (peptide)
peptide: Me-RGDLATLRQL
modifications: not fully specified; printed as Me-RGDLATLRQL
notes: as for B1
Regarding B11, in assay [2], the “MFI (specific MFI ratio, sample/no-ligand)” value amounted to 4.8 ratio.

B12: Dap(guanidino)-GDLATLRQL (peptide)
peptide: [Agp]GDLATLRQL
modifications: not fully specified; printed as Dap(guanidino)-GDLATLRQL
notes: as for B1
Consider B12, for which the “MFI (specific MFI ratio, sample/no-ligand)” value in assay [2] was found to be 3.4 ratio.

B13: RGDLATLRQLEEEK-(HyNic) (peptide)
peptide: RGDLATLRQLEEEK(HyNic)
modifications: also: conjugated via HyNic to Cy5-labelled 1170-100B polymer, places HyNic at (1)..(1) as C-terminal
notes: Conjugated to Cy5-labelled 1170-100B polymer; printed with its own K-(HyNic)
As to B13, the “MFI (specific MFI ratio, sample/no-ligand)” value in assay [2] was 6.5 ratio.

B14: RGDLATLRQ (peptide)
peptide: RGDLATLRQ
modifications: not fully specified
notes: as for B1
For the molecule B14, the “MFI (specific MFI ratio, sample/no-ligand)” value in assay [2] amounted to 4.7 ratio.
